Key:
[1] = test system: zmPPL_1360-30a1 ZFN monomer (synthetic construct); experiment: cell_activity; details: ZFN pair with zmPPL_1360-r23a1 in bombarded haploid maize callus; control 5.0; locus target SEQ 32
[2] = test system: zmPPL_1360-r23a1 ZFN monomer (synthetic construct); experiment: cell_activity; details: ZFN pair with zmPPL_1360-30a1 in bombarded haploid maize callus; control 5.0; locus target SEQ 32

Row | Sequence | activity (indels per 1 million high quality reads) [1] | activity (indels per 1 million high quality reads) [2]
1 | TTCGCGGTGGGACACTTG (double strand) [zmPPL_1360-30a1 half-site (PPL1 locus)] | 40 | 
2 | ACTCCGTATGCGAAGGCA (double strand) [zmPPL_1360-r23a1 half-site (PPL1 locus)] |  | 40

— patent US20150307889
